Measurements taken from patent publication US20160229919A1 (US Dept. of Health and Human Services, published 2016).

Tests used:
[1] = biological target: human transferrin receptor (human) (UniProt P02786); test: flow cytometry on YOU cells
[2] = biological target: human transferrin receptor (human) (UniProt P02786); test: flow cytometry on L55 cells
[3] = biological target: human transferrin receptor (human) (UniProt P02786); test: flow cytometry on NCI-H322M cells
[4] = biological target: human transferrin receptor (human) (UniProt P02786); test: flow cytometry on EKVX cells
[5] = biological target: human transferrin receptor (human) (UniProt P02786); test: cell-based or functional assay
[6] = biological target: cell-surface mesothelin on mesothelin-expressing cells (human) (UniProt Q13421); test: flow cytometry on NCI-ADR-RES cells
[7] = biological target: cell-surface mesothelin on mesothelin-expressing cells (human) (UniProt Q13421); test: flow cytometry on YOU cells
[8] = biological target: cell-surface mesothelin on mesothelin-expressing cells (human) (UniProt Q13421); test: flow cytometry on NCI-H226 cells
[9] = biological target: cell-surface mesothelin on mesothelin-expressing cells (human) (UniProt Q13421); test: flow cytometry on Mz-Cha-1 cells
[10] = biological target: cell-surface mesothelin on mesothelin-expressing cells (human) (UniProt Q13421); test: flow cytometry on KMBC cells
[11] = biological target: cell-surface mesothelin on mesothelin-expressing cells (human) (UniProt Q13421); test: flow cytometry on L55 cells
[12] = biological target: cell-surface mesothelin on mesothelin-expressing cells (human) (UniProt Q13421); test: flow cytometry on H9 cells
[13] = biological target: cell-surface mesothelin on mesothelin-expressing cells (human) (UniProt Q13421); test: flow cytometry on H9 cells; remark: listed apart in the source
[14] = biological target: cell-surface mesothelin on mesothelin-expressing cells (human) (UniProt Q13421); test: flow cytometry on KMCH cells
[15] = biological target: cell-surface mesothelin on mesothelin-expressing cells (human) (UniProt Q13421); test: flow cytometry on OVCAR8 cells
[16] = biological target: cell-surface mesothelin on mesothelin-expressing cells (human) (UniProt Q13421); test: flow cytometry on NCI-H322M cells
[17] = biological target: cell-surface mesothelin on mesothelin-expressing cells (human) (UniProt Q13421); test: flow cytometry on M30 cells
[18] = biological target: cell-surface mesothelin on mesothelin-expressing cells (human) (UniProt Q13421); test: flow cytometry on EKVX cells
[19] = biological target: cell-surface mesothelin on mesothelin-expressing cells (human) (UniProt Q13421); test: cell-based or functional assay
[20] = biological target: mesothelin-Fc fusion protein (human) (UniProt Q13421); test: sandwich ELISA: YP223 capture, mesothelin-Fc titrated, biotinylated YP218 detection
[21] = biological target: recombinant mesothelin protein (full-length mesothelin) (human) (UniProt Q13421); test: ELISA, mAb titrated on mesothelin (1 ug/ml), fit with Prism
[22] = biological target: mesothelin Region I fragment (residues 296-390) (human, UniProt Q13421 296-390); test: ELISA on mesothelin fragments
Sequence of mesothelin Region I fragment (residues 296-390) (Q13421 296-390): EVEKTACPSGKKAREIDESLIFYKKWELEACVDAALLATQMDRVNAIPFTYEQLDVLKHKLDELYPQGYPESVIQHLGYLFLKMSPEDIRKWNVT

Sequence of human transferrin receptor (human) (P02786 whole entry): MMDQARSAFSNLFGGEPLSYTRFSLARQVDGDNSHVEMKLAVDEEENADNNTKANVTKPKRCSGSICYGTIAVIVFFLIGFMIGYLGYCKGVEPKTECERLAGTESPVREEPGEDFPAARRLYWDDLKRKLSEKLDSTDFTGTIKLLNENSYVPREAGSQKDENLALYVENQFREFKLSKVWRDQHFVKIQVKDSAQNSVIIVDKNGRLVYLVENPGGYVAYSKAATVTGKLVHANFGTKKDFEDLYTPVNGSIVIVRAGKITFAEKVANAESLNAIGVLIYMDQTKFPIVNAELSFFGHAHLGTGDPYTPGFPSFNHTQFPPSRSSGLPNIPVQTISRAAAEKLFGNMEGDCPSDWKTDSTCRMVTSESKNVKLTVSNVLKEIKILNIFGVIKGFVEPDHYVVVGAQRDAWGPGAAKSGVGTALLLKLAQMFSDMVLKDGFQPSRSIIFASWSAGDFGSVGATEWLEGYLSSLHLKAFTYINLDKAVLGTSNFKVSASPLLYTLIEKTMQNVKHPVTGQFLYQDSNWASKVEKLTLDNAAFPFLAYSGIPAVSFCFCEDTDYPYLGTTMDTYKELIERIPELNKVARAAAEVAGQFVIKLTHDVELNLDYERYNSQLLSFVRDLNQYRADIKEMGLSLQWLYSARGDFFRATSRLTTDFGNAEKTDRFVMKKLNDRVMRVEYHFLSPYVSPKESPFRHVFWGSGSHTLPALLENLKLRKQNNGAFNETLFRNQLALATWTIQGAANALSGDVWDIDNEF

Molecule: HB21-PE40 immunotoxin
- Kd [1]: 24.7 nM
- Kd [2]: 9.74 nM
- Kd [3]: 6.05 nM
- Kd [4]: 6.28 nM
- IC50 (ng ml^-1), cytotoxicity on EKVX cells [5]: 0.21 ng/mL
- IC50 (ng ml^-1), cytotoxicity on H226-GL cells [5]: 0.22 ng/mL
- IC50 (ng ml^-1), cytotoxicity on L55 cells [5]: 0.57 ng/mL
- IC50 (ng ml^-1), cytotoxicity on M30 cells [5]: 0.51 ng/mL
- IC50 (ng ml^-1), cytotoxicity on NCI-ADR-RES cells [5]: 0.12 ng/mL
- IC50 (ng ml^-1), cytotoxicity on NCI-H322M cells [5]: 0.31 ng/mL

Molecule: SS1P immunotoxin
- Kd [6]: 1.41 nM
- Kd [7]: 1.48 nM
- Kd [8]: 1.49 nM
- Kd [9]: 1.3 nM
- Kd [10]: 2.15 nM
- Kd [11]: 1.04 nM
- Kd [12]: 4.82 nM
- Kd [13]: 1.3 nM
- Kd [14]: 1.26 nM
- Kd [15]: 0.6 nM
- Kd [16]: 0.44 nM
- Kd [17]: 0.49 nM
- Kd [18]: 1.7 nM
- IC50 (ng ml^-1), cytotoxicity on EKVX cells [19]: 55.4 ng/mL
- IC50 (ng ml^-1), cytotoxicity on H9 cells [19]: 0.076 ng/mL
- IC50 (ng ml^-1), cytotoxicity on H226-GL cells [19]: 1.99 ng/mL
- IC50 (ng ml^-1), cytotoxicity on KMBC cells [19]: 3.39 ng/mL
- IC50 (ng ml^-1), cytotoxicity on KMCH cells [19]: 7.23 ng/mL
- IC50 (ng ml^-1), cytotoxicity on L55 cells [19]: 5.89 ng/mL
- IC50 (ng ml^-1), cytotoxicity on M30 cells [19]: 7.13 ng/mL
- IC50 (ng ml^-1), cytotoxicity on Mz-Cha-1 cells [19]: 21.6 ng/mL
- IC50 (ng ml^-1), cytotoxicity on NCI-ADR-RES cells [19]: 1.2 ng/mL
- IC50 (ng ml^-1), cytotoxicity on NCI-H226 cells [19]: 5.29 ng/mL
- IC50 (ng ml^-1), cytotoxicity on NCI-H322M cells [19]: 4.02 ng/mL
- IC50 (ng ml^-1), cytotoxicity on OVCAR8 cells [19]: 1.82 ng/mL
- IC50 (ng ml^-1), cytotoxicity on YOU cells [19]: 13 ng/mL
- IC50 (ng/ml), cytotoxicity on RH16 mesothelioma patient primary cells [19]: 10.4 ng/mL
- IC50 (ng/ml), cytotoxicity on RH18 mesothelioma patient primary cells [19]: > 100 ng/mL
- IC50 (ng/ml), cytotoxicity on RH19 mesothelioma patient primary cells [19]: 0.63 ng/mL
- IC50 (ng/ml), cytotoxicity on RH21 mesothelioma patient primary cells [19]: 0.73 ng/mL

B1: YP223 rabbit monoclonal antibody (antibody, V domains shown)
VH: QEQLEESGGDLVQPEGSLTLTCKASGLDFSSSYWICWVRQAPGKGLEWIGCRHTFTANTWSASWVNGRFTISRSTSLGTVDLKMTSLTAADTATYFCARDESNNDGWDFKLWGPGTLVTVSS
VL: AYDMTQTPASVSAAVGGTVTIKCQASQSISNYLAWYQQKPGQPPKLLIYQASTLAPGVSSRFKGSGSGTEFTLTISGVECADAATYYCQQGYTSSNVENVFGGGTGVVV
- EC50 [20]: 0.5 nM
- Kd [21]: 0.65 nM

B2: YP158 rabbit monoclonal antibody (antibody, V domains shown)
VH: QSLEESGGDLVKPGASLTLTCTASGFSFSGDYYMCWVRQAPGKGLEWIACIGGGSNTATYYATWAKGRFTISKTSSTTVTLQMTSLTAADTATYFCARDLGFVDYALELWGPGTLVTVSS
VL: DIVMTQTPASVEVAVGGTVTIKCQASENMYNSLAWYQQKPGQPPKLLIYRASTLESGVPSRFKGSGSGTEYTLTISDLECADAATYYCQCTFYSHNNNYGGAFGGGTEVVV
notes: Rabbit hybridoma mAb (rabbit IgG)
- binding result [22]: binds

B3: YP3 rabbit monoclonal antibody (antibody, V domains shown)
VH: QEQLVESGGGLVQPGASLTLTCTASGIDFSRYYMCWVRQAPGKGLEGIACIYIGGSGSTYYASWAKGRFTISKASSTTVTLQMTSLTAADTATYFCARGTNLNYIFRLWGPGTLVTVSS
VL: DVVMTQTPSPVSAAVGGTVTIKCQASQSINNGLAWYQQKPGQPPRLLIYSASNLESGVPSRFKGSGSGTEFTLTISDLECDDAATYYCQCIWDGNSYVNAFGGGTEVVV
- Kd [21]: 0.42 nM

B4: YP218 rabbit monoclonal antibody (antibody, V domains shown)
VH: QQQLEESGGGLVKPEGSLTLTCKASGFDLGFYFYACWVRQAPGKGLEWIACIYTAGSGSTYYASWAKGRFTISKASSTTVTLQMTSLAAADTATYFCARSTANTRSTYYLNLWGPGTLVTVSS
VL: DVVMTQTPASVSEPVGGTVTIKCQASQRISSYLSWYQQKPGQRPKLLIFGASTLASGVPSRFKGSGSGTEYTLTISDLECADAATYYCQSYAYFDSNNWHAFGGGTEVVV
- Kd [21]: 0.91 nM
